# Reference: the nanobody polyreactivity screen of Harvey et al. (2022)
# Assay: yeast display, Sf9 membrane polyspecificity reagent, FACS + sequencing; frameworks hold sequencing errors
# Method in brief: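 Synthetic nanobody libraries on Saccharomyces cerevisiae BJ5465 were galactose-induced for 36–48 hours, stained 1 hour at 4 °C with 10% biotinylated, detergent-solubilized Sf9 membrane reagent and enriched on streptavidin microbeads. FACS then separated cells into low and high (top ~1%) gates by anti-HA (expression) and streptavidin (reagent binding) fluorescence. Genes were colony-PCR amplified, MiSeq 2 × 250 sequenced and CDR-length filtered. A clone's polyreactivity label is that of its gate of origin.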
row,Sequence,polyreactivity (PSR sort gate)
1,QVQLVESGGGLVQAGGSLRLSCAASGSTFSVNAMGWYRQAPGKEREFVAAITYSGGSTYYADSVKGRFTISRDNAKNTVYLQMNSLKPEDTAVYYCNRDTRYYWKRYGYWGQGTQVTVSS,high polyreactivity
2,QVQLVESGGGLVQAGGSLRLSCAASGSTFSVYGMGWYRQAPGKERELVAINIIGGSTYYADSVKGRFTISRDNAKNTVYLQMNSLKPEDTAVYYCAADSFPSEFDYWGQGTQVTVSS,low polyreactivity
3,QVQLVESGGGLVQAGGSLRLSCAASGSTFSVYTMGWYRQAPGKERELVAAITRNGGSTSYADSVKGRFTISRDNAKNTVYLQMNSLKPEDTAVYYCAASYSYRGYLYGYWGQGTQVTVSS,high polyreactivity
4,QVQLVESGGGLVQAGGSLRLSCAASGSTFSWYAMGWYRQAPGKERELVASISFSGGDTSYADSVKGRFTISRDNAKNTVYLQMHSLKPEDSAVYYCGKEYKYETDTKFDYWGQGTQVTVSS,low polyreactivity
5,QVQLVESGGGLVQAGGSLRLSCAASGSTFSWYTMGWYRQAPGKERELVAAISWSGGRTYYADSVKGRFTISRDNAKNTVYLQMNSLKPEDTAVYYCAAYDYWYSLGVYQFYYWGQGTQVTVSS,low polyreactivity
6,QVQLVESGGGLVQAGGSLRLSCAASGSTFSWYTMGWYRQAPGKERELVAAITRDGSTYYADSVKGRFTISRDNAKNTVYLHMNSLKPEDTAVYYCAADLSYWRGGHSRNYWGQGTQVTVSS,low polyreactivity
7,QVQLVESGGGLVQAGGSLRLSCAASGSTFSWYVMGWYRQAPGKERELVAAISYRGGRTYYADSVKGRFTISRDNAKNTVYLQMNSLKPEDTAVYYCAARGVVDAGRTNRPYDYWGQGTQVTVSS,low polyreactivity
8,QVQLVESGGGLVQAGGSLRLSCAASGSTFSYNAMGWYRQAPGKERELVAAISWRGGRTYYADSVKGRFTISRDNAKNTVYLQMYSLKPEDTAVYYCAAAYAAYSRYRYDYWGQGTQVTVSS,high polyreactivity
9,QVQLVESGGGLVQAGGSLRLSCAASGSTFSYNAMGWYRQAPGKERELVAAITSSGSSTYYADSVKGRFTISRYNAKNTVYLQMNSLKPEDTAVYYCAATLYNTEDDYWGQGTQVTVSS,low polyreactivity
10,QVQLVESGGGLVQAGGSLRLSCAASGSTFSYNAMGWYRQAPGKERELVATITYSGGTTYYADSVKGRFTISRDNAKNTVYLQMNSLKPEDTAVYYCAALYSFSYLSTSFVVEDWYYYWGQGTQVTVSS,high polyreactivity
11,QVQLVESGGGLVQAGGSLRLSCAASGSTFSYNAMGWYRQAPGKVRELVASINSRGGTTYYADSVKGRFTISRDNAKNTVYLQMNSRKPEDTAVYYCATDVYRLGEYDYWGQGTQVTVSS,low polyreactivity
12,QVQLVESGGGLVQAGGSLRLSCAASGSTFSYNDMGWYRQAPGKERELVAAITDSDGNTDYADSVKGRFTISRDKAKNTVYLQMNSLKPEDTAVYYCAAYYYGSVAQDREYWGQGTQVTVSS,high polyreactivity
13,QVQLVESGGGLVQAGGSLRLSCAASGSTFSYYAMGWYRQAPGKEMELVAAIRSGGSTYYADSVKGRFTISRDNAKNTVYLQMNSLKPEDTAVYYCNADYIRASTLKYGTIYYWHYDYWGQGTQVTVSS,high polyreactivity
14,QVQLVESGGGLVQAGGSLRLSCAASGSTFSYYAMGWYRQAPGKERDLVASIDGSTGSTYYADSVKGRFTISRDNAKTTVYLQMNILKPEDTAVYYFNAESLDYYDNAYEYWGQGTQVTVSS,low polyreactivity
15,QVQLVESGGGLVQAGGSLRLSCAASGSTFSYYAMGWYRQAPGKERELVAAITKRGGSTYYADSVKGRFTISRDNAKNTVYLQMNSLKPEVTAVYYCAAKRKSYYSYNFDYWGQGTQVTVSS,high polyreactivity
16,QVQLVESGGGLVQAGGSLRLSCAASGSTFSYYAMGWYRQAPGKERELVARISWRGGSTYYADSVKGRFTISRDNAKNTVYLQMNSLKPEDTAVYYCAARRSGTYYGTYKSNGRNYWGQGTQVTVSS,high polyreactivity

row,Sequence,polyreactivity (PSR sort gate)
1,QVQLVESGGGLVQAGGSLRLSCAASGSTFSYYAMGWYRQAPGKEWELVAAIRSGGSTYYADSVKGRFTISRDNAKNTVYLQMNSLKPEDTAVYYCNADYIRASTLNYGTIYYWHYDYWGQGTQVTVSS,high polyreactivity
2,QVQLVESGGGLVQAGGSLRLSCAASGSTFSYYDMGWYRQAPGKERELVAAISWNGGTTYYADSVKGRFTISRDNAKNTVYLQMNSLKPEDTAVYYCAATWDFYWAPYDSWGQGTQVTVSS,low polyreactivity
3,QVQLVESGGGLVQAGGSLRLSCAASGSTFSYYGMGWYRPAPGKERELVAAIDYSGDSTYYADSVKARFTISRDNAKNTVYLQMNSLKPEDTAVYYCAADDYPWNRYEYWGQGTQVTVSS,low polyreactivity
4,QVQLVESGGGLVQAGGSLRLSCAASGSTFSYYPMGWYRQAPGKERELVATISKRGGTTSYADSVKGRFTISRDNAKNTVYLQMISLKPEDTAVYYCAARYSKVHYAYDYWGQGTQVTVSS,high polyreactivity
5,QVQLVESGGGLVQAGGSLRLSCAASGSTFTANAMGWYRQAPGTERELVAAISRSGGSTYYADSVKGRFTISRDNAKYTVYLQLNSLKPEDTAVYYCAAECPLFSPPDGEDYWGQGTLVTVSS,low polyreactivity
6,QVQLVESGGGLVQAGGSLRLSCAASGSTFTAYAMGWYRHAPGKERELVAGITGNGGSTRYADSVKGRFTISRDNAKNTVYVQMNSLKPEDTAFYYCAARWTRQRYRTSYYSWGQGTQVTVSS,high polyreactivity
7,QVQLVESGGGLVQAGGSLRLSCAASGSTFTAYVMGWYRQAPGKERELVAAISSSGGRTYYADSVKGRFTISRDNAKNTVYLQMNSLKPEDTAVYYCAARSGPLAYDYWGQGTQVTVSS,high polyreactivity
8,QVQLVESGGGLVQAGGSLRLSCAASGSTFTDNAMGWYRQAPGKETELVAAINGSGDITYYADSVKGRFTISRDYAKNTVYLQMKSLKPEDTAVYYCATRTQYKTWYGAYYYWGQGTQVTVSS,low polyreactivity
9,QVQLVESGGGLVQAGGSLRLSCAASGSTFTDYAMGWYRQAPGKERELVAAIRFSGGSTYYADSVKGRFTISRDNAKNTVYLQMNSLKPEDTAVYYCAAGGYPWLDSWGQGTQVTVSS,low polyreactivity
10,QVQLVESGGGLVQAGGSLRLSCAASGSTFTDYDMGWYRPAPGKERELVAAISSGGSTYYADSVKGRFTISRDNAKNTVYLQMNSLKPEDTAVYYCAAVLGVWGGVGSEGDYWGQGTQVTVSS,low polyreactivity
11,QVQLVESGGGLVQAGGSLRLSCAASGSTFTFNAMGWYRQAPGKERELVAAITTSAGSTYYADSVKGRFTISRDNAKNTVYLQMNSLKPEDTAVYYCAARYVPPWGRRYYYWGQGTQVTVSS,high polyreactivity
12,QVQLVESGGGLVQAGGSLRLSCAASGSTFTFYFMGWYRQAPGKERELVAAITASGGSTYYADSVKGRFTISRDNAKNTVYLQMNSEKPEDTAVYYCAARPTYYYSRTYDYWGQGTQVTVSS,low polyreactivity
13,QVQLVESGGGLVQAGGSLRLSCAASGSTFTGNAMGWYRQAPGKERELVASINGSSGSTYYADSVKGRFTISRDNAKNTVYFQMNSLKPEDTAVYYCAKDSFLHFPRVGWVGLEYWGQGTQVTVSS,low polyreactivity
14,QVQLVESGGGLVQAGGSLRLSCAASGSTFTGNAMGWYRQAPGKERELVASIRRIGSPYYADSVKGRFTISRDNAKNTVDLQMISLKPEDTAVFYCAAAVKIRTPYQYGYWGQGTQVTVSS,high polyreactivity
15,QVQLVESGGGLVQAGGSLRLSCAASGSTFTGYAMGWYRPAPGKERELVAAISRSVGRTYYADSVKGRFTISRDNAKNTVYLQMNSLKPEDTAVYYCAADVYLTGSRNYYWGQGTQVTVSS,high polyreactivity
